Assay: Stability of S-nitrosothiols (NAT conversion from DAN)
Settings: within 15 min of incubation

B1: S-nitroso-MMP-9: S-nitrosylation product of SNOC-treated R-proMMP-9 (protein, UniProt P14780 20-707, looked up)
pro-form: APRQRQSTLVLFPGDLRTNLTDRQLAEEYLYRYGYTRVAEMRGESKSLGPALLLLQKQLSLPETGELDSATLKAMRTPRCGVPDLGRFQTFEGDLKWHHHNITYWIQNYSEDLPRAVIDDAFARAFALWSAVTPLTFTRVYSRDADIVIQFGVAEHGDGYPFDGKDGLLAHAFPPGPGIQGDAHFDDDELWSLGKGVVVPTRFGNADGAACHFPFIFEGRSYSACTTDGRSDGLPWCSTTANYDTDDRFGFCPSERLYTQDGNADGKPCQFPFIFQGQSYSACTTDGRSDGYRWCATTANYDRDKLFGFCPTRADSTVMGGNSAGELCVFPFTFLGKEYSTCTSEGRGDGRLWCATTSNFDSDKKWGFCPDQGYSLFLVAAHEFGHALGLDHSSVPEALMYPMYRFTEGPPLHKDDVNGIRHLYGPRPEPEPRPPTTTTPQPTAPPTVCPTGPPTVHPSERPTAGPTGPPSAGPTGPPTAGPSTATTVPLSPVDDACNVNIFDAIAEIGNQLYLFKDGKYWRFSEGRGSRPQGPFLIADKWPALPRKLDSVFEERLSKKLFFFSGRQVWVYTGASVLGPRRLDKLGLGADVAQVTGALRSGRGKMLLFSGRRLWRFDVKAQMVDPRSASEVDRMFPGVPLDTHDVFQYREKAYFCQDRFYWRVSSRSELNQVDQVGYVTYDILQCPED
modifications: pro-form S-nitrosylated
  remained: over 80%

— patent US20090209615A1, “INHIBITORS OF MATRIX METALLOPROTEINASES TO TREAT NEUROLOGICAL DISORDERS” (priority 2004, published 2009)
